The Human Domainome abundance scans (Beltran et al. 2025)
± gives the uncertainty stated by the source.

B1: RUN and FYVE domain-containing protein 1, residues 639 to 698; numbered along this chain, Q96T51 (parent)
chain: WLKDDEATHCRQCEKEFSISRRKHHCRNCGHIFCNTCSSNELALPSYPKPVRVCDSCHTL
B2: POU domain, class 3, transcription factor 2, residues 262 to 338; numbered along this chain, P20265 (parent)
chain: EDTPTSDDLEQFAKQFKQRRIKLGFTQADVGLALGTLYGNVFSQTTICRFEALQLSFKNMCKLKPLLNKWLEEADSS

Variants of: B1
Assay: abundance fitness (aPCA) (normalised: wild type 0, dead -1); higher = more abundant; growth selection in yeast, the domain comes from the species named
Details: Homo sapiens

Variant	abundance fitness
T59Y	-0.183 ± 0.06
T59S	0.052 ± 0.041
T59P	-0.281 ± 0.068
T59Q	0.328 ± 0.076
T59V	0.127 ± 0.046
T59N	-0.058 ± 0.081
L60V	-0.202 ± 0.065
L60M	-0.194 ± 0.081
L60I	0.094 ± 0.19
L60G	0.229 ± 0.11
L60E	0.031 ± 0.13
L60Q	0.101 ± 0.086
L60K	0.023 ± 0.047
L60H	-0.293 ± 0.16
L60W	-0.366 ± 0.064
L60P	-0.404 ± 0.085
L60N	-0.126 ± 0.14
L60T	-0.087 ± 0.066
L60A	0.036 ± 0.059
L60S	-0.067 ± 0.044
L60C	-0.625 ± 0.088
L60F	-0.163 ± 0.07
L60Y	-0.422 ± 0.17

Variants of: B2
Assay: as above
Details: Homo sapiens

Variant	abundance fitness
T45R	-0.005 ± 0.025
T45I	-0.213 ± 0.057
T45E	0.143 ± 0.035
T45C	-0.163 ± 0.047
D7S	0.054 ± 0.45
E1C	-0.035 ± 0.15
E1G	-0.031 ± 0.037
E1Q	-0.088 ± 0.12
E1W	-0.191 ± 0.084
E1N	0.124 ± 0.21
F57W	-0.169 ± 0.031
F57C	-0.516 ± 0.068
F57L	-0.077 ± 0.03
F57G	-0.246 ± 0.028
F57D	-0.105 ± 0.066
F42H	-0.138 ± 0.096
F42N	-0.582 ± 0.15
P65T	-0.059 ± 0.12
P65H	-0.034 ± 0.25
F16W	-0.595 ± 0.047
F16M	-0.606 ± 0.063
F16I	-0.753 ± 0.13
F16P	-0.733 ± 0.081
F16N	-0.704 ± 0.13

Variant	abundance fitness
F16S	-0.802 ± 0.059
D2Q	0.054 ± 0.039
D2I	0.023 ± 0.084
D2H	0.015 ± 0.051
D2E	-0.047 ± 0.033
D2C	-0.124 ± 0.049
D2P	-0.153 ± 0.052
L32N	0.091 ± 0.19
A74V	0.041 ± 0.034
A74G	-0.331 ± 0.03
A74H	-0.032 ± 0.067
A74E	-0.065 ± 0.037
L67C	-0.504 ± 0.23
Q15F	-0.187 ± 0.13
Q15A	-0.124 ± 0.034
S6H	0.265 ± 0.068
S6M	0.148 ± 0.04
S6N	-0.032 ± 0.049
S6Y	0.126 ± 0.057
S6V	0.062 ± 0.027
S6C	0.058 ± 0.042
R20W	-0.909 ± 0.096
R20H	-1.02 ± 0.3
D75W	-0.085 ± 0.034

Variant	abundance fitness
D75I	-0.089 ± 0.092
D75N	-0.032 ± 0.059
D75K	-0.058 ± 0.047
D75S	0.032 ± 0.033
D75A	0.009 ± 0.031
Q18P	-1.21 ± 0.36
Q18I	-0.223 ± 0.12
N40Y	-0.007 ± 0.084
N40R	0.023 ± 0.035
N40C	0.028 ± 0.06
N40L	-0.173 ± 0.037
N40E	0.108 ± 0.04
N40W	-0.281 ± 0.049
I47P	-1.02 ± 0.19
I47M	-0.58 ± 0.065
I47T	-0.636 ± 0.083
I47S	-0.782 ± 0.081
W70E	-0.742 ± 0.077
W70V	-0.411 ± 0.042
W70Y	-0.381 ± 0.099
W70G	-0.754 ± 0.041
W70L	-0.502 ± 0.043
W70A	-0.519 ± 0.048
L34C	-0.224 ± 0.05

Variant	abundance fitness
L34R	-0.773 ± 0.054
L34G	-0.854 ± 0.059
L34T	-0.742 ± 0.1
L34A	-0.646 ± 0.068
L34H	-1.2 ± 0.45
L34Q	-0.948 ± 0.15
G39P	-0.023 ± 0.046
G39N	-0.012 ± 0.066
G39V	-0.897 ± 0.069
G39R	-0.25 ± 0.03
G39C	-0.528 ± 0.069
G39I	-0.808 ± 0.21
G39E	-0.207 ± 0.036
F50W	-0.749 ± 0.067
F50Y	-0.412 ± 0.1
F50E	-0.85 ± 0.091
S43N	0.01 ± 0.054
S43K	-0.132 ± 0.053
S43D	0.093 ± 0.048
S43Y	-0.486 ± 0.12
S43A	-0.209 ± 0.034
S43V	-0.703 ± 0.056
S43F	-0.57 ± 0.18
S43R	-0.206 ± 0.031

Variant	abundance fitness
T5Q	-0.082 ± 0.041
T5N	0.026 ± 0.046
T5P	-0.138 ± 0.042
T5M	-0.056 ± 0.044
T5Y	-0.337 ± 0.089
K58N	0.039 ± 0.18
K58C	-0.321 ± 0.096
K58V	-0.113 ± 0.039
L71R	-0.427 ± 0.077
L71K	-0.559 ± 0.2
L71A	-0.504 ± 0.16
L71I	-0.422 ± 0.37
L71M	0.067 ± 0.12
D8M	-0.056 ± 0.049
D8N	0.047 ± 0.096
D8F	-0.186 ± 0.087
D8Y	-0.41 ± 0.14
G31K	-0.383 ± 0.065
G31N	-0.44 ± 0.1
G31R	-0.383 ± 0.036
N59V	0.041 ± 0.033
N59C	-0.042 ± 0.056
N59L	0.029 ± 0.042
N59S	-0.001 ± 0.039

Variant	abundance fitness
I21S	-0.337 ± 0.04
I21P	-0.805 ± 0.12
I21L	-0.015 ± 0.03
E72K	-0.12 ± 0.087
E72T	-0.073 ± 0.042
E72S	-0.13 ± 0.038
E72G	-0.178 ± 0.033
Q44D	-0.018 ± 0.042
Q44R	-0.066 ± 0.028
Q44G	0.019 ± 0.025
Q44P	0.023 ± 0.044
Q44V	-0.098 ± 0.03
Q44S	0.008 ± 0.035
Q44H	-0.031 ± 0.069
K64P	-0.931 ± 0.19
K64I	-0.246 ± 0.083
K64S	-0.226 ± 0.042
K64H	-0.051 ± 0.074
K64V	-0.155 ± 0.034
L66Y	-0.22 ± 0.081
L66K	-0.096 ± 0.043
K62S	-0.055 ± 0.032
K62D	-0.045 ± 0.053
E73A	-0.145 ± 0.081

Variant	abundance fitness
E73F	-0.057 ± 0.14
C48T	-0.064 ± 0.037
C48I	-0.134 ± 0.061
C48Q	0.134 ± 0.046
C48S	0.029 ± 0.033
C48R	0.004 ± 0.027
C48K	0.066 ± 0.047
S56G	-0.101 ± 0.03
S76C	-0.075 ± 0.043
S76W	-0.163 ± 0.034
S76N	0.013 ± 0.05
S76L	-0.099 ± 0.033
S76Q	0.055 ± 0.047
L37I	0.063 ± 0.083
L37C	-0.031 ± 0.053
L37S	-0.093 ± 0.037
L37G	-0.328 ± 0.026
T46C	-0.317 ± 0.061
T46K	-0.416 ± 0.059
T46F	-0.325 ± 0.11
T46P	-0.697 ± 0.082
V41I	-0.157 ± 0.12
V41K	0.065 ± 0.057
V41N	0.008 ± 0.079

Variant	abundance fitness
V41D	0.047 ± 0.069
V41T	0.009 ± 0.053
V41M	0.012 ± 0.068
K69F	-0.234 ± 0.14
K69T	-0.02 ± 0.08
K69S	-0.146 ± 0.1
K69N	-0.298 ± 0.25
A13F	-0.84 ± 0.2
A13S	-0.274 ± 0.041
A13N	-1.07 ± 0.28
A13K	-0.606 ± 0.11
A13G	-0.605 ± 0.051
Q27A	-0.071 ± 0.032
Q27Y	0.084 ± 0.17
Q27C	0.045 ± 0.054
Q27I	-0.222 ± 0.067
Q27H	0.02 ± 0.063
Q27P	-0.028 ± 0.047
Q27V	-0.115 ± 0.032
D29H	-0.249 ± 0.061
D29Q	-0.04 ± 0.04
D29E	-0.04 ± 0.032
D29V	-0.607 ± 0.044
D29S	-0.248 ± 0.034

Variant	abundance fitness
D29G	-0.239 ± 0.027
D29K	-0.26 ± 0.046
T36R	0.012 ± 0.027
T36Q	-0.038 ± 0.045
T36E	0.056 ± 0.033
T36P	-0.137 ± 0.046
A52Q	0.056 ± 0.04
A52W	-0.552 ± 0.054
A52F	-0.844 ± 0.46
A52E	0.048 ± 0.031
L55Y	-0.285 ± 0.062
L55D	-0.369 ± 0.061
L55S	-0.504 ± 0.045
E10M	0.008 ± 0.038
E10G	-0.223 ± 0.028
T26Y	-0.89 ± 0.23
T26M	-0.705 ± 0.1
T26W	-0.898 ± 0.11
T26I	-0.635 ± 0.14
T26D	-0.601 ± 0.11
K17S	-0.279 ± 0.035
K17D	-0.949 ± 0.12
K17G	-0.6 ± 0.029
K17T	-0.192 ± 0.036

Variant	abundance fitness
R49Q	0.045 ± 0.04
R49H	-0.314 ± 0.09
A33L	-0.304 ± 0.041
A33E	-0.172 ± 0.042
A33D	-0.284 ± 0.068
A33F	-0.329 ± 0.083
A33N	-0.477 ± 0.14
V30I	-0.235 ± 0.15
V30P	-0.569 ± 0.091
V30W	-0.793 ± 0.14
V30G	-0.776 ± 0.089
C61A	-0.101 ± 0.031
C61T	-0.182 ± 0.045
C61G	-0.278 ± 0.027
C61F	-0.274 ± 0.053
C61P	-0.779 ± 0.086
C61R	-0.025 ± 0.028
C61D	-0.291 ± 0.075
M60E	-0.848 ± 0.079
M60F	-0.373 ± 0.13
M60S	-0.377 ± 0.055
M60Y	-0.624 ± 0.15
M60Q	-0.546 ± 0.095
M60G	-0.543 ± 0.035

Variant	abundance fitness
M60C	-0.386 ± 0.074
M60A	-0.168 ± 0.035
T3S	-0.042 ± 0.036
T3Y	-0.029 ± 0.063
T3L	-0.086 ± 0.037
T3R	-0.086 ± 0.029
L23D	-0.733 ± 0.091
L23R	-0.239 ± 0.034
L23A	-0.188 ± 0.033
L23G	-0.398 ± 0.045
F25H	-0.266 ± 0.091
F25R	-0.321 ± 0.03
F25P	-0.837 ± 0.15
F25Q	-0.431 ± 0.049
L53F	-0.09 ± 0.061
S77N	-0.169 ± 0.11
S77D	-0.003 ± 0.064
S77T	0.073 ± 0.049
L63A	-0.665 ± 0.051
L63Q	-1.03 ± 0.18
L63R	-0.794 ± 0.048
Y38G	-0.074 ± 0.028
Y38P	-0.36 ± 0.058
Y38N	-0.043 ± 0.051

Variant	abundance fitness
Q54K	0.045 ± 0.055
Q11A	0.016 ± 0.038
E51G	-0.818 ± 0.058
E51N	-0.886 ± 0.29
F12T	-0.359 ± 0.15
F12Y	-0.023 ± 0.17
F12W	-0.27 ± 0.18
F12C	-0.555 ± 0.16
F12A	-0.283 ± 0.13
L9N	-0.394 ± 0.084
L9I	0.074 ± 0.047
L9S	-0.564 ± 0.049
L9H	-0.352 ± 0.069
L9C	-0.246 ± 0.052
K14V	-0.134 ± 0.054
K14T	-0.121 ± 0.087
K14I	-0.267 ± 0.23
K14L	-0.058 ± 0.053
G24L	-0.789 ± 0.048
G24F	-1 ± 0.25
G24V	-0.814 ± 0.044
G24T	-0.914 ± 0.081
G24D	-0.572 ± 0.067
R19I	-0.196 ± 0.073

Variant	abundance fitness
R19F	-0.439 ± 0.09
R19S	-0.187 ± 0.039
R19A	-0.057 ± 0.036
R19C	-0.162 ± 0.054
K22P	-0.958 ± 0.18
K22V	-0.298 ± 0.033
K22I	-0.273 ± 0.068
K22F	-0.096 ± 0.064
G35I	-0.367 ± 0.1
G35V	-0.345 ± 0.035
G35F	-0.183 ± 0.054
A28T	-0.198 ± 0.049
A28P	-0.811 ± 0.12
A28Q	-0.094 ± 0.044
A28C	-0.165 ± 0.048
A28N	-0.019 ± 0.079
A28S	-0.086 ± 0.037
A28Y	-0.117 ± 0.065
P4Q	0.053 ± 0.052
P4M	0.068 ± 0.053
P4E	0.002 ± 0.045
P4F	0.149 ± 0.11
P4Y	-0.102 ± 0.12
